From patent US20180296694A1 (IMMUNOGEN, published 2018)

Biological target: folate receptor alpha (FRα) on cells (human, UniProt P15328 25-234)
Assay: cell-based or functional assay

folate receptor alpha (FRα) on cells, sequence (P15328 25-234): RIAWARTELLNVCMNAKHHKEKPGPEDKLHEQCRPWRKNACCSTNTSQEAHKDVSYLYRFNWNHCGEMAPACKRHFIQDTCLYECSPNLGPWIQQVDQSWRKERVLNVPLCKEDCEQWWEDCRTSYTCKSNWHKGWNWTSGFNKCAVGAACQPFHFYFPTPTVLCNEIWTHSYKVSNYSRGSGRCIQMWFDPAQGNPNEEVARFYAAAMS

| Binder | IC50, in vitro cytotoxicity (WST-8, 5 days), Igrov-1 cells, +Block | IC50, in vitro cytotoxicity (WST-8, 5 days), Igrov-1 cells, ADC | IC50, in vitro cytotoxicity (WST-8, 5 days), Jeg-3 cells, +Block | IC50, in vitro cytotoxicity (WST-8, 5 days), Jeg-3 cells, ADC | IC50, in vitro cytotoxicity (WST-8, 5 days), KB cells, +Block | IC50, in vitro cytotoxicity (WST-8, 5 days), KB cells, ADC | IC50, in vitro cytotoxicity (WST-8, 5 days), SKOV-6 cells, +Block | IC50, in vitro cytotoxicity (WST-8, 5 days), SKOV-6 cells, ADC |
| --- | --- | --- | --- | --- | --- | --- | --- | --- |
| Mov19v1.6-GMBS-dAlalAla-PAB-DM1 (conjugate 4b) (antibody, human IgG1, kappa, V domains shown, D-Ala-L-Ala-PAB-DM1 linked through GMBS, about 3.5 DM/Ab) VH: QVQLVQSGAEVVKPGASVKISCKASGYTFTGYFMNWVKQSPGQSLEWIGRIHPYDGDTFYNQKFQGKATLTVDKSSNTAHMELLSLTSEDFAVYYCTRYDGSRAMDYWGQGTTVTVSS VL: DIVLTQSPLSLAVSLGQPAIISCKASQSVSFAGTSLMHWYHQKPGQQPRLLIYRASNLEAGVPDRFSGSGSKTDFTLTISPVEAEDAATYYCQQSREYPYTFGGGTKLEIKR | 20 nM | 0.3 nM | 10 nM | 0.2 nM | > 50 nM | 0.2 nM | 10 nM | 0.9 nM |
| conjugate 17g (antibody, human IgG1, kappa, V domains shown, thio-peptide-maytansinoid 14g linked through sulfo-GMBS to antibody amines (Example 4)) VH: QVQLVQSGAEVVKPGASVKISCKASGYTFTGYFMNWVKQSPGQSLEWIGRIHPYDGDTFYNQKFQGKATLTVDKSSNTAHMELLSLTSEDFAVYYCTRYDGSRAMDYWGQGTTVTVSS VL: DIVLTQSPLSLAVSLGQPAIISCKASQSVSFAGTSLMHWYHQKPGQQPRLLIYRASNLEAGVPDRFSGSGSKTDFTLTISPVEAEDAATYYCQQSREYPYTFGGGTKLEIKR | > 50 nM | 3 nM | > 50 nM | 0.5 nM | > 50 nM | 0.3 nM | > 50 nM | > 10 nM |
| M9346A-sGMBS-LDL-DM (conjugate 17c) (antibody, human IgG1, kappa, V domains shown, maytansinoid LDL-DM (compound 14c, L-Ala-D-Ala-L-Ala) linked through sulfo-GMBS to antibody amines, 3.7 mol LDL-DM/mol antibody) VH: QVQLVQSGAEVVKPGASVKISCKASGYTFTGYFMNWVKQSPGQSLEWIGRIHPYDGDTFYNQKFQGKATLTVDKSSNTAHMELLSLTSEDFAVYYCTRYDGSRAMDYWGQGTTVTVSS VL: DIVLTQSPLSLAVSLGQPAIISCKASQSVSFAGTSLMHWYHQKPGQQPRLLIYRASNLEAGVPDRFSGSGSKTDFTLTISPVEAEDAATYYCQQSREYPYTFGGGTKLEIKR | > 50 nM | 7 nM | > 50 nM | 0.6 nM | > 50 nM | 0.3 nM | > 50 nM | > 10 nM |
| conjugate 17h (antibody, human IgG1, kappa, V domains shown, thio-peptide-maytansinoid 14h linked through sulfo-GMBS to antibody amines (Example 4)) VH: QVQLVQSGAEVVKPGASVKISCKASGYTFTGYFMNWVKQSPGQSLEWIGRIHPYDGDTFYNQKFQGKATLTVDKSSNTAHMELLSLTSEDFAVYYCTRYDGSRAMDYWGQGTTVTVSS VL: DIVLTQSPLSLAVSLGQPAIISCKASQSVSFAGTSLMHWYHQKPGQQPRLLIYRASNLEAGVPDRFSGSGSKTDFTLTISPVEAEDAATYYCQQSREYPYTFGGGTKLEIKR | > 50 nM | 30 nM | > 50 nM | 0.5 nM | > 50 nM | 0.4 nM | > 50 nM | > 10 nM |
| conjugate 17i (antibody, human IgG1, kappa, V domains shown, thio-peptide-maytansinoid 14i linked through sulfo-GMBS to antibody amines (Example 4)) VH: QVQLVQSGAEVVKPGASVKISCKASGYTFTGYFMNWVKQSPGQSLEWIGRIHPYDGDTFYNQKFQGKATLTVDKSSNTAHMELLSLTSEDFAVYYCTRYDGSRAMDYWGQGTTVTVSS VL: DIVLTQSPLSLAVSLGQPAIISCKASQSVSFAGTSLMHWYHQKPGQQPRLLIYRASNLEAGVPDRFSGSGSKTDFTLTISPVEAEDAATYYCQQSREYPYTFGGGTKLEIKR | > 50 nM | 50 nM | > 50 nM | 0.7 nM | > 50 nM | 0.3 nM | > 50 nM | > 10 nM |
